The term Kd denotes the constant that tells how readily two partners part at equilibrium. Low readings indicate higher affinity, high ones lower affinity. Usually Ki stands for the equilibrium dissociation constant of an inhibitor or competing ligand from its target. One may read the IC50 as the concentration that gives 50% inhibition.

For experiment [1], the target named is murine IGF-1R(ECD)-C3-mFc (murine) (UniProt Q60751). Briefly: Biacore, kinetic method, murine IGF-1R(ECD)-C3-mFc. On the technique in general: In SPR one partner is held on a chip, and binding of the other changes the refractive index at the surface.
The target is the same in experiment [2]. In words: IGEN ligand blocking, maximal inhibition of human Ru labeled IGF-1 binding to murine IGF-1R(ECD)-C3-mFc.
Experiment [3] has the same target. In words: IGEN ligand blocking, competitor human Ru labeled IGF-1 on murine IGF-1R(ECD)-C3-mFc.
The target is the same in experiment [4]. In words: IGEN ligand blocking, competitor human Ru labeled IGF-2 on murine IGF-1R(ECD)-C3-mFc.
Another experiment has as its target HER-2 (Homo sapiens, UniProt P04626). The note with it: cellular; read-out: IC50 against Others: HER-2; cited from earlier work.

murine IGF-1R(ECD)-C3-mFc (murine), sequence (Q60751 31-936): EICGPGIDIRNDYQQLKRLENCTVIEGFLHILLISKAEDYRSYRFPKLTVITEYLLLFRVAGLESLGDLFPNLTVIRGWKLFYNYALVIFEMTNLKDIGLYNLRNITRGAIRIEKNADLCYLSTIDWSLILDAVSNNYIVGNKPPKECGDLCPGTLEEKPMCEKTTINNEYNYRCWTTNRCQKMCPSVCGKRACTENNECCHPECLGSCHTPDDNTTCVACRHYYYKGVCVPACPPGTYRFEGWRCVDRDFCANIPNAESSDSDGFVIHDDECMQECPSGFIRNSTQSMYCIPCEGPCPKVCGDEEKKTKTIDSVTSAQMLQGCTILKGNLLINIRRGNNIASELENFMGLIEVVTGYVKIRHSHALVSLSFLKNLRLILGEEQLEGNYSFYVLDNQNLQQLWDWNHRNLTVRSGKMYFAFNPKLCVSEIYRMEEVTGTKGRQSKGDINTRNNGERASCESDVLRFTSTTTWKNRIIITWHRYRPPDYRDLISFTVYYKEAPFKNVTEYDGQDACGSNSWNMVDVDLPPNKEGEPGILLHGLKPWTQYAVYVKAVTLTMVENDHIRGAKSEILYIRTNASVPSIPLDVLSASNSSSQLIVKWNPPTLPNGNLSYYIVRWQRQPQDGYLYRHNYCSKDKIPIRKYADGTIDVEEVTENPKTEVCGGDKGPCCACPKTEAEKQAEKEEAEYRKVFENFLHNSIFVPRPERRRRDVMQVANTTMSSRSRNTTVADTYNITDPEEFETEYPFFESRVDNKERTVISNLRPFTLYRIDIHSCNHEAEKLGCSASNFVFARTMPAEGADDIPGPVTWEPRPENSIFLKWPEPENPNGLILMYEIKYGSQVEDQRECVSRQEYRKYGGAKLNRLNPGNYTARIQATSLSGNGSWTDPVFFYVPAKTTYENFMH
HER-2, sequence (P04626 23-1255, species assumed): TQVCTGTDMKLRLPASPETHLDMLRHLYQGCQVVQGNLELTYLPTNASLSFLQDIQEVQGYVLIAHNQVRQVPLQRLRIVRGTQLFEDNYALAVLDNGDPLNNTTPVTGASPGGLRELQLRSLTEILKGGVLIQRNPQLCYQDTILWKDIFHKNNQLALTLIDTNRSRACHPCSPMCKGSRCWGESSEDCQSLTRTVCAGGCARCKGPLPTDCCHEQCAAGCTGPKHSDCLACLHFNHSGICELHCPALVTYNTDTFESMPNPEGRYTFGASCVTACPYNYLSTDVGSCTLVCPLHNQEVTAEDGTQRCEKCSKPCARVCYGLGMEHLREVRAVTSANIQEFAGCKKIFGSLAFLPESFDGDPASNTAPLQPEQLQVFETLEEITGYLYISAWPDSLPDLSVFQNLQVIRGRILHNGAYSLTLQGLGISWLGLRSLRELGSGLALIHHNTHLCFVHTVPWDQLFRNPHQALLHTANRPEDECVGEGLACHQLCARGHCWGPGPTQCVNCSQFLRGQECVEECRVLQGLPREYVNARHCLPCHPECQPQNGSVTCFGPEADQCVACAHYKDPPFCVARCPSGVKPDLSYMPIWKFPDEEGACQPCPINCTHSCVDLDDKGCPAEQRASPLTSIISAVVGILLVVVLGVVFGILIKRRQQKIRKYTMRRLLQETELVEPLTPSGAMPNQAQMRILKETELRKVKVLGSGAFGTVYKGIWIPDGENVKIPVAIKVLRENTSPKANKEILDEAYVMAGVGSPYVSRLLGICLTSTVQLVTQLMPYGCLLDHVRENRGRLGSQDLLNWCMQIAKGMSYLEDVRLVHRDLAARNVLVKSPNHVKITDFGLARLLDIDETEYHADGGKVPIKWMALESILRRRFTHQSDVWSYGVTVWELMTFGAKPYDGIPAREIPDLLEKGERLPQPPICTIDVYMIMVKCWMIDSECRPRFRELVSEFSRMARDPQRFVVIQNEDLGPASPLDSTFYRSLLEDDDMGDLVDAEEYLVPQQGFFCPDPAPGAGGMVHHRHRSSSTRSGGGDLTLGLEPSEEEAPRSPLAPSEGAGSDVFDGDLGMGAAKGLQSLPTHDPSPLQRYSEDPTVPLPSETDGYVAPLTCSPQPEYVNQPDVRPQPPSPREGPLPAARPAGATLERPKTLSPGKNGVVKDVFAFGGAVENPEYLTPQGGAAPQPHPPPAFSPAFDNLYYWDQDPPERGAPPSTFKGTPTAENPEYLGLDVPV

Regarding αIR3 (antibody), the Kd in experiment [1] worked out at 0.00033 µM. In experiment [2], this compound displayed an IGF-1 Max (%) of 31%. Besides, the Ki in experiment [3] and in experiment [4] was greater than 1 µM throughout.
For `C[C@H](Cc1ccc(O)c(O)c1)[C@@H](C)Cc1ccc(O)c(O)c1` [INSM-18, nondihydroguaiaretic acid], the IC50 at HER-2 is 15 µM.
